B1: ADP-ribosylation factor-like protein 2-binding protein (Homo sapiens), Q9Y2Y0 (parent)
chain: MDALEGESFALSFSSASDAEFDAVVGYLEDIIMDDEFQLLQRNFMDKYYLEFEDTEENKLIYTPIFNEYISLVEKYIEEQLLQRIPEFNMAAFTTTLQHHKDEVAGDIFDMLLTFTDFLAFKEMFLDYRAEKEGRGLDLSSGLVVTSLCKSSSLPASQNNLRH

Variants of: B1
Conditions: with arl2_human ARL2, P36404
Chain of arl2_human ARL2, P36404 (P36404 whole entry): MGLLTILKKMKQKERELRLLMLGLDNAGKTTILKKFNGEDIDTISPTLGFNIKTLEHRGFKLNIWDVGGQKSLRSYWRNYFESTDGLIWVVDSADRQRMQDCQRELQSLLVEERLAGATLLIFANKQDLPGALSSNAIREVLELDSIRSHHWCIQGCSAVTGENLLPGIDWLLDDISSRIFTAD

Effect of a mutation on the interaction, decreasing interaction:
MDALEGESFALSFSSASDAEFDAVVGYLEDIIMDDEFQLLQRNFMDKYYLEFEDTEENKAIYTPIFNEYISLVEKYIEEQLLQRIPEFNMAAFTTTLQHHKDEVAGDIFDMLLTFTDFLAFKEMFLDYRAEKEGRGLDLSSGLVVTSLCKSSSLPASQNNLRH [L60A]
MDALEGESFALSFSSASDAEFDAVVGYLEDIIMDDEFQLLQRNFMDKYYLEFEDTEANKLIYTPIFNEYISLVEKYIEEQLLQRIPEFNMAAFTTTLQHHKDEVAGDIFDMLLTFTDFLAFKEMFLDYRAEKEGRGLDLSSGLVVTSLCKSSSLPASQNNLRH [E57A]
MDALEGESFALSFSSASDAEFDAVVGYLEDIIMDDEFQLLQRNFMDKYYLEFEDTEENKLIYTPIFNEYISLVEKYIEEQLLQRIPEFNMAAFTTTLQHHKDEVAGDIFDMALTFTDFLAFKEMFLDYRAEKEGRGLDLSSGLVVTSLCKSSSLPASQNNLRH [L112A]
MDALEGESFALSFSSASDAEFDAVVGYLEDIIMDDEFQLLQRNFMDKYYLEFEDTEENKLIYTPIFNEYISLVEKYIEEQLLQRIPEFNMAAFTTTLQHHKDEVAGDIFDMLLTATDFLAFKEMFLDYRAEKEGRGLDLSSGLVVTSLCKSSSLPASQNNLRH [F115A]
MDALEGESFALSFSSASDAEFDAVVGYLEDIIMDDEFQLLQRNFMDKYYLEFEDTAENKLIYTPIFNEYISLVEKYIEEQLLQRIPEFNMAAFTTTLQHHKDEVAGDIFDMLLTFTDFLAFKEMFLDYRAEKEGRGLDLSSGLVVTSLCKSSSLPASQNNLRH [E56A]
MDALEGESFALSFSSASDAEFDAVVGYLEDIIMDDEFQLLQRNFMDKYYLEFEDTEENKLIYTPIFNEYISLVEKYIEEQLLQRIPEFNMAAFTTTLQHHKDEVAGDIFAMLLTFTDFLAFKEMFLDYRAEKEGRGLDLSSGLVVTSLCKSSSLPASQNNLRH [D110A]
MDALEGESFALSFSSASDAEFDAVVGYLEDIIMDDEFQLLQRNFMDKYYLEFEDTEENKLIYTPIFNEYISLVAKYIEEQLLQRIPEFNMAAFTTTLQHHKDEVAGDIFDMLLTFTDFLAFKEMFLDYRAEKEGRGLDLSSGLVVTSLCKSSSLPASQNNLRH [E74A]
MDALEGESFALSFSSASDAEFDAVVGYLEDIIMDDEFQLLQRNFMDKYYLEFEDTEENKLIYTPIFNEYISLVEKYIEEQLLQRIPEFNMAAFTTTLQHHKDEVAGDIADMLLTFTDFLAFKEMFLDYRAEKEGRGLDLSSGLVVTSLCKSSSLPASQNNLRH [F109A]

Reference: IntAct's records for PubMed 19368893
